# According to the nanobody polyreactivity screen of Harvey et al. (2022):
# Test: yeast display, Sf9 membrane polyspecificity reagent, FACS + sequencing; frameworks hold sequencing errors
# Summary of the method: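 In a synthetic yeast display library (Saccharomyces cerevisiae BJ5465), nanobody expression was induced with galactose for 36–48 hours. FACS gates were set low and high (top ~1%) using anti-HA fluorescence for expression and streptavidin fluorescence for binding of the Sf9 membrane reagent. Each polyreactivity label is drawn from the gate of origin.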
row,Sequence,polyreactivity (PSR sort gate)
1,QVQLVESGGGLVQAGGSLRLSCAASGITIREYAMGWYRQAPGKERELVASISGGGGSTSYADSVKGRFTISRDNAKNTVYLQMNSLKPEDTAVYYCATRYAIAGWVGYYYWGQGTQVTVSS,low polyreactivity
2,QVQLVESGGGLVQAGGSLRLSCAASGFTFTRYTMGWYRQAPGKERELVAAITSGGRTNYADSVKGRFTISRDNAKNTVYLQMNSLKPEDTAVYYCAARYVYYWAYGNEYWGHGTQVTVSS,high polyreactivity
3,QVQLVESGGGLVQAGGSLRLSCAPSGSTFYSNAMGWYRQAPGKERELVASISWSSGSTYYADSVKGRFTISRDNAKNTVYLQMNSLKPEDTAVYYCNKRPVILYDYWGQGTQVTVSS,low polyreactivity
4,QVQLVESGGGLVQAGGSLRLSCAASGIIFGWYAMGWYRPAPGKERELVAAISSGGRTNYADSVKGRFTISRDNAKNTVYLQMNSLKPEDTAVYYCAARLWENTGYYYWGQGTQVTVSS,high polyreactivity
5,QVQLVESGGGLVQAGGSLRISCAPSGSTFIPNDMGWYRQAPGKERELVAAITVSGDDTYYADSVKGRFTISRDNAKNNVYVQMNILKPEVTAVYYCAAEWGLYVGQYEYWGQGTQVTVSS,low polyreactivity
6,QVQLVESGGGLVQAGGSLRLSCAASGFTFSQYAMGWYRQAPGKERELVAAITFSGDSTYYADSVKGRFTISRDNAKNTVYLQMNSLKPEDTAVYYCNADDWWGGYDYWGQGTQVTVSS,low polyreactivity
7,QVQLVESGGGLVQAGGSLRLSCAASGSTFRGYAMGWYRQAPGKERELVAAITSDGSTNYADSVKGRFTISRDNAKNTVYLQMNSLKPEDTAVYYCNVKATRKWWDRRVYRYNYWGQGTQVTVSS,high polyreactivity
8,QDQLVESGGGLVQAGGSLRLSCAASGRIFGINAMGWYRQAPGKERELVAAISSGGSTYYADSVKGRFTISRDNAKNTVYLQMNILKPEDTAVYYCAKGPSWKYYSYTLDYWGKGTQVTVSS,low polyreactivity
9,QVQLVESGGGLVHAGGSLRLSCAASGGTFDVNAMGWYRQAPGKERELVATISGGGSTNYADSVNGRFTISRDNAKNSVYLQINSLKPEDTAVYYCAAESEPIRNRERDYWGQGTQVSVSS,low polyreactivity
10,QGQLVESGGGLVQAGGSLRLSCAASGRIFTRYALGWYRQAPGNEREFVARSTGSGGRTYYADSVKGRFSISRDNAKNTVYLQMNSLKPEDTAVYYCNARRPSWHSYDYGYADYYWGQGTQVTVSS,high polyreactivity
11,QVQLVESGGGLVQAGGSLRLSCAASGSTIAYYTMGWYRQAPGKERELVAAISASGGSTYYADSVKGRFTISRDNAKNTFYIQMNSLKPEDTAVYYCNAESYLTGWWVDYWGQGTQVTVSS,low polyreactivity
12,QVQLVESGGGLVQAGGSLRLSCAASGRTFYSYAMGWYRPAPGKERELVAAISRRGGSTYYADSVKGRFTISRDNAKNTVYLQMNSLKPEDTAVYYCAKGGGRVGQPGYDYWGQGTQVTVSS,high polyreactivity
13,QVQLVESGGGLVQAGGSLRLSCAASGGTFSSNAMGWYRQAPGKERELVAAIRSTGRTYYADSVKGRFTISRDNAKNTVYLQMNSLKPEDTAVYYCAADLGRTPTGKIGFDYWGQGTQVTVSS,high polyreactivity
14,QVQLVESGGGLVQAGGSLRLSCAASGSIFPYNDMGWYRQAPGKERELVARITNGGSTNYADSVKGRFTISRDNAKNTVYLQMNSLKPEDTAVYYCNKDGTQEFAPDGHEYWGQGTQVTVSS,low polyreactivity
15,QVQLVESGGGLVQAGGSLRLSCAASGYIFLGNAMGWYRQAPGKERELVAAISRSGGSTYYADSVKGRFTISRDNAKNTVYLQMNSLKPEATAVYYCAAGTRIYNSWIRFDYWGQGTQVTVSS,high polyreactivity
16,QVQLVESGGGLVQAGGSLRLSCAASGSTFSGYVMGWYRQAPGKERELVAAINGGGGTTYYADSVKGRFTISRDNAKNTVYLQMNSLKPEDTAVYYCAKRSYVTYPPYDYWGQGTQVTVSS,high polyreactivity
17,QVQLVESGGGLVHAGGSLRLSCAASGSIFYHYAMGWYRQAPGKERELVAAITWSGGSTYYADSVKGRFTISRDNAKNTVYLQMNSLKPEDTAVYYCATSSNVEFGYWGQGTQVTVSS,low polyreactivity
18,QVQLEESGGGIVQAGGSLRLSCAASGRTFKLNAMGLYRQAPGKERELVAAISRNGGSTYYADSVKGRFTISRDNAKNTVFLQMNSLKPEDTAVYYCAAVRHGVSLAGYYWGQGTQVTVSS,high polyreactivity
19,QVQLEESGGGLVQAGGCLRLSCAASGSIFEWYAMGWYRQAPGKERELVADISSVGSTYYADSVKGRFTISRDNAKNTVYLQMNSLKPEDTAVYYCNTSYIIWYDSWGQGTQVTVSS,low polyreactivity
20,QVQLVESGGGLVQAGGSLRLSCAASGSTSSVYAMGWYRQAPGKEREFVASITRRTGITFYADSVKGRFTISRDNAKNTVYLQMNSLKPEDTAVYYCATRGGYPKGYGYLAFNYWGQGTQVTVSS,high polyreactivity
21,QVQLVESGGGLVQAGGSLRLSCAASGSTFHKNAMGWYRQAPGKERELVAGITKRGGSTYYADSVKGRFTISRDNAKNTVYLQMNSLKPEDTAVYYCNADFPVGRTEYDYWGQGTQVTVSS,low polyreactivity
